# Test results from the supplement of paper PMC9233669.
# This sample holds only a part of the variants without activity.
# Tests used:
# biotinyl-Phe-oxazolone = experiment: self-aminoacylation, catalytic enhancement (BFO) (fold over background); higher = more active; k-Seq, kA / k0A0; sequences stand for … in GGGAAUGGAUCCACAUCUACGAAUUC…UUCACUGCAGACUUGACGAAGCUG
# How it was run: (§1)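 Each biotinyl-aminoacyl-oxazolone, at 2–1250 μM, was incubated with mutagenized RNA pools (0.43 μM) carrying a 21-nt variable region. The 50 μL reactions contained HEPES/NaCl/KCl/MgCl2/CaCl2 buffer with 5% acetonitrile at pH 6.9–7.0 and ran for 90 minutes at room temperature. After streptavidin capture, RNA was measured by qPCR in triplicate and by Illumina sequencing, and catalytic enhancement was calculated as median kA over the uncatalyzed rate from a pseudo-first-order fit of per-sequence fraction reacted.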
# biotinyl-Ile-oxazolone = experiment: self-aminoacylation, catalytic enhancement (BIO) (fold over background); higher = more active; k-Seq, kA / k0A0; sequences stand for … in GGGAAUGGAUCCACAUCUACGAAUUC…UUCACUGCAGACUUGACGAAGCUG
# How it was run: as §1
# biotinyl-Met-oxazolone = experiment: self-aminoacylation, catalytic enhancement (BMO) (fold over background); higher = more active; k-Seq, kA / k0A0; sequences stand for … in GGGAAUGGAUCCACAUCUACGAAUUC…UUCACUGCAGACUUGACGAAGCUG
# How it was run: as §1
# biotinyl-Val-oxazolone = experiment: self-aminoacylation, catalytic enhancement (BVO) (fold over background); higher = more active; k-Seq, kA / k0A0; sequences stand for … in GGGAAUGGAUCCACAUCUACGAAUUC…UUCACUGCAGACUUGACGAAGCUG
# How it was run: as §1
# biotinyl-Leu-oxazolone = experiment: self-aminoacylation, catalytic enhancement (BLO) (fold over background); higher = more active; k-Seq, kA / k0A0; sequences stand for … in GGGAAUGGAUCCACAUCUACGAAUUC…UUCACUGCAGACUUGACGAAGCUG
# How it was run: as §1
# biotinyl-Trp-oxazolone = experiment: self-aminoacylation, catalytic enhancement (BWO) (fold over background); higher = more active; k-Seq, kA / k0A0; sequences stand for … in GGGAAUGGAUCCACAUCUACGAAUUC…UUCACUGCAGACUUGACGAAGCUG
# How it was run: as §1
Sequence,self-aminoacylation (biotinyl-Phe-oxazolone),self-aminoacylation (biotinyl-Ile-oxazolone),self-aminoacylation (biotinyl-Met-oxazolone),self-aminoacylation (biotinyl-Val-oxazolone),self-aminoacylation (biotinyl-Leu-oxazolone),self-aminoacylation (biotinyl-Trp-oxazolone)
CUACCUCAAACAAUCAGUCUG [Fam1A.1 aminoacylation ribozyme variant],1.74,0.649,0.588,0.647,0.671,0.702
AUUACCCUGGUGAUCGAUUGA [Fam2.1 aminoacylation ribozyme variant],0.845,1.03,1.39,0.859,1.09,0.834
AACUUUGCUAAUAAUCGCAAG [Fam3.1 aminoacylation ribozyme variant],3.06,1.93,1.96,1.96,2.04,2.71
AUUACCCGGGUCAUCCAGUGA [Fam2.1 aminoacylation ribozyme variant],28.6,3.39,4.59,3.05,4.86,5.93
CUCCUUCAAACGAUCGGUCUG [Fam1A.1 aminoacylation ribozyme variant],1.86,0.833,0.833,0.925,1.21,2.2
GUUCACCUAGGUGAUCGGGUG [Fam2.2 aminoacylation ribozyme variant],21,3.88,3.88,3.88,4.25,4.84
CUCCUUCAAACAAUCCGUCUG [Fam1A.1 aminoacylation ribozyme variant],1.24,1.03,0.657,0.949,0.659,1.25
AUUCACCUAGACCAUCGGGUG [Fam2.2 aminoacylation ribozyme variant],22.4,2.48,4.26,3.62,5.27,3.81
AUUCACCGAGGUCAUCGAGUG [Fam2.2 aminoacylation ribozyme variant],12.6,1.75,2.89,2.17,3.6,2.82
AUUCCUCUAGGUCAUCGGGUG [Fam2.2 aminoacylation ribozyme variant],154,10.4,16.6,10.5,23.7,16.1
CUACUUCAAGCAAUCGGUUUG [Fam1A.1 aminoacylation ribozyme variant],11.5,1.11,0.981,1.03,1.35,8.79
AUUACCCGGGUUAUCGAGUGA [Fam2.1 aminoacylation ribozyme variant],94.5,5.68,13.3,5.94,14.4,14.6
AUUAUCCUGGUCAUCGAGAGA [Fam2.1 aminoacylation ribozyme variant],1.15,1.08,0.869,0.989,0.847,0.862
AUUCAGCUAGGUCGUCGGGUG [Fam2.2 aminoacylation ribozyme variant],13.1,2.53,3.24,2.62,3.24,3.08
AUGUAUGCUAAUAGUCGCAAG [Fam3.1 aminoacylation ribozyme variant],3.25,1.62,1.67,1.39,1.14,1.95
AUCCUCCUAGGUCAUCGGGUG [Fam2.2 aminoacylation ribozyme variant],68.5,6.79,11.8,7.4,12.9,9.65
AUUCAACUAGGUCAUCGGUUG [Fam2.2 aminoacylation ribozyme variant],0.677,0.952,0.933,0.963,0.889,0.843
CUAUUUCAAACAAUCGGACUG [Fam1A.1 aminoacylation ribozyme variant],1.93,0.976,0.82,0.733,0.803,1.12
AUUCACCUUGGUCAUCGAGUG [Fam2.2 aminoacylation ribozyme variant],8.55,2.69,3.96,2.49,4.66,3.59
CAACACUUUAAGCAAUCGGUC [Fam1B.1 aminoacylation ribozyme variant],1.03,0.96,0.762,0.846,0.854,0.886
AAGUUUGCUAAUAGUCGCCGG [Fam3.1 aminoacylation ribozyme variant],10.5,3.08,5.01,4.14,3.53,5.77
AUUCAGUUAGGUCAUCGGGUG [Fam2.2 aminoacylation ribozyme variant],25.6,3.04,3.8,3.12,4.86,4.04
CCACACUUCAAGCUAUUGGUC [Fam1B.1 aminoacylation ribozyme variant],0.896,0.797,0.643,0.759,0.595,0.661
UUUAUCCUGGUCAUCGAGUGA [Fam2.1 aminoacylation ribozyme variant],10.2,5.25,8.6,4.7,9.68,11.3
CUACUUCAAACAAUCGGGCUU [Fam1A.1 aminoacylation ribozyme variant],1.14,1.55,1.12,1.32,0.955,1.3
AUGACCCUGGUGAUCGAGUGA [Fam2.1 aminoacylation ribozyme variant],27.3,2.8,4.4,2.44,5.51,5

Sequence,self-aminoacylation (biotinyl-Phe-oxazolone),self-aminoacylation (biotinyl-Ile-oxazolone),self-aminoacylation (biotinyl-Met-oxazolone),self-aminoacylation (biotinyl-Val-oxazolone),self-aminoacylation (biotinyl-Leu-oxazolone),self-aminoacylation (biotinyl-Trp-oxazolone)
AUUACCCUGUUCAUUGAGUGA [Fam2.1 aminoacylation ribozyme variant],83.6,5.73,13.8,5.4,12.7,16.3
CUACUACAAACAUUCGGUCUG [Fam1A.1 aminoacylation ribozyme variant],1.33,1.34,1.23,1.38,1.01,1.18
CUACUUCAAACUAUCGGCCUG [Fam1A.1 aminoacylation ribozyme variant],0.97,1.2,1.13,1.06,0.909,1.66
CUACUUCAAACAAUCGGUCCA [Fam1A.1 aminoacylation ribozyme variant],1.79,0.753,0.654,0.757,0.633,0.907
CUACGUCAAACUAUCGGUCUG [Fam1A.1 aminoacylation ribozyme variant],5.88,1.58,1.95,1.76,1.72,1.58
AAGUUGGCUAAUCGUCGCAAG [Fam3.1 aminoacylation ribozyme variant],2.73,1.76,1.68,1.51,1.75,2.24
AUUACGCUGAUCAUCGAGUGA [Fam2.1 aminoacylation ribozyme variant],15,3.16,5.61,3.36,5.8,6.11
ACUUUUGCUAAUAGUCGCAAG [Fam3.1 aminoacylation ribozyme variant],3.71,2.75,2.59,2.57,2.68,2.56
CCACAAUUCAAGCAAUCUGUC [Fam1B.1 aminoacylation ribozyme variant],0.965,0.576,0.524,0.746,0.558,0.559
AAGUUUGCUUAUGGUCGCAAG [Fam3.1 aminoacylation ribozyme variant],0.863,0.54,0.728,0.727,0.603,0.782
AUUUCCCUGGUCAUCGAGUAA [Fam2.1 aminoacylation ribozyme variant],3.9,1.56,2.39,1.83,2.52,2.37
CUACACUUCAAGCAAUCAGUC [Fam1B.1 aminoacylation ribozyme variant],21,0.668,0.718,0.886,0.754,6.32
AUUCCCCUGGUCACCGAGUGA [Fam2.1 aminoacylation ribozyme variant],73.1,5.93,9.9,5.07,11.1,12.6
AUUCACCUAGAACAUCGGGUG [Fam2.2 aminoacylation ribozyme variant],16.8,2.39,2.73,2.47,2.88,3.56
AUUCACCUAGGUCCGCGGGUG [Fam2.2 aminoacylation ribozyme variant],50.3,5.39,9.13,4.58,8.76,7.69
AUAUCCCUGGUCAUCGAGUGA [Fam2.1 aminoacylation ribozyme variant],10.5,5.36,10.3,5.25,9.81,11.8
AAGUAUGCUAAUAGUCGCAGG [Fam3.1 aminoacylation ribozyme variant],2.31,1.44,1.37,1.48,1.46,1.2
AUUUUCCUAGGUCAUCGGGUG [Fam2.2 aminoacylation ribozyme variant],30.9,4.64,6.79,4.16,9.58,6.89
CUACUGCAGACAAUCGGUCUG [Fam1A.1 aminoacylation ribozyme variant],0.577,0.897,1.06,1.04,1.07,0.497
CCACUUCAAACCAUCGGUCUG [Fam1A.1 aminoacylation ribozyme variant],1.49,1.31,0.947,1.29,1.24,1.16
AUGCACCUAGGUCAUCGGCUG [Fam2.2 aminoacylation ribozyme variant],11,1.99,2.3,2.2,1.83,2.5
AAGUUUGGUAAUAGUCGCUAG [Fam3.1 aminoacylation ribozyme variant],1.64,1.18,1.05,0.958,0.996,1.47
AAGUUUGCCAAUAGUCCCAAG [Fam3.1 aminoacylation ribozyme variant],0.931,1.21,1.1,1.04,0.831,1.27
AUUAGCCUGUUCAUCGAGUGA [Fam2.1 aminoacylation ribozyme variant],18,3.04,5.64,3.27,5.5,7.22
UUUCACCUAGGUCAUGGGGUG [Fam2.2 aminoacylation ribozyme variant],29.1,3.19,3.8,2.96,4.07,4.25
